Results on 17 molecules are retold here after patent US20060257938A1, “Method of screening for drugs that block ligand binding to a lipid binding protein” (priority 2005, published 2006).

B1: Y117A, L72A: FABP probe clone, substitutions Y117A, L72A vs SEQ ID NO: 2 (protein, listed as Rattus norvegicus)
chain: AFDGTWKVDRNENYEKFMEKMGINVVKRKLGAHDNLKLTITQEGNKFTVKESSNFRNIDVVFELGVDFAYSAADGTELTGTWTMEGNKLVGKFKRVDNGKELIAVREISGNELIQTATYEGVEAKRIFKKE
modifications: PEPTIDE (1)...(131) wild-type rat intestinal fatty acid binding protein
B2: A73F, L72A: FABP probe clone, substitutions A73F, L72A vs SEQ ID NO: 2 (protein, listed as Rattus norvegicus)
chain: B1 chain with A73F, A117Y
modifications: PEPTIDE (1)...(131) wild-type rat intestinal fatty acid binding protein
B3: L72A: FABP probe clone, substitution L72A vs SEQ ID NO: 2 (protein of ADIFAB2) (protein, listed as Rattus norvegicus)
chain: B1 chain with A117Y
modifications: PEPTIDE (1)...(131) wild-type rat intestinal fatty acid binding protein
B4: L72G: FABP probe clone, substitution L72G vs SEQ ID NO: 2 (protein, listed as Rattus norvegicus)
chain: B1 chain with A72G, A117Y
modifications: PEPTIDE (1)...(131) wild-type rat intestinal fatty acid binding protein
B5: L72M: FABP probe clone, substitution L72M vs SEQ ID NO: 2 (protein, listed as Rattus norvegicus)
chain: B1 chain with A72M, A117Y
modifications: PEPTIDE (1)...(131) wild-type rat intestinal fatty acid binding protein
B6: Y117S, L72A: FABP probe clone, substitutions Y117S, L72A vs SEQ ID NO: 2 (protein, listed as Rattus norvegicus)
chain: B1 chain with A117S
modifications: PEPTIDE (1)...(131) wild-type rat intestinal fatty acid binding protein
B7: L1P14A9: FABP probe, substitutions Y14L L72G Y117I vs SEQ ID NO: 2 (protein, listed as Rattus norvegicus)
chain: B1 chain with Y14L, A72G, A117I
modifications: PEPTIDE (1)...(131) wild-type rat intestinal fatty acid binding protein
B8: L1P7B11: FABP probe, substitutions Y14I L38I L72V vs SEQ ID NO: 2 (protein, listed as Rattus norvegicus)
chain: B1 chain with Y14I, L38I, A72V, A117Y
modifications: PEPTIDE (1)...(131) wild-type rat intestinal fatty acid binding protein
B9: L1P12F12: FABP probe, substitutions Y14L L72G Y117V vs SEQ ID NO: 2 (protein, listed as Rattus norvegicus)
chain: B1 chain with Y14L, A72G, A117V
modifications: PEPTIDE (1)...(131) wild-type rat intestinal fatty acid binding protein
B10: L1P11F12: FABP probe, substitutions Y14L L38I vs SEQ ID NO: 2 (protein, listed as Rattus norvegicus)
chain: B1 chain with Y14L, L38I, A72L, A117Y
modifications: PEPTIDE (1)...(131) wild-type rat intestinal fatty acid binding protein
B11: L1P1F7: FABP probe, substitutions Y14L L38M Y117F vs SEQ ID NO: 2 (protein, listed as Rattus norvegicus)
chain: B1 chain with Y14L, L38M, A72L, A117F
modifications: PEPTIDE (1)...(131) wild-type rat intestinal fatty acid binding protein
B12: L1P12E11: FABP probe, substitutions Y14L L72W vs SEQ ID NO: 2 (protein, listed as Rattus norvegicus)
chain: B1 chain with Y14L, A72W, A117Y
modifications: PEPTIDE (1)...(131) wild-type rat intestinal fatty acid binding protein
B13: L1P3D6: FABP probe, substitution Y14L vs SEQ ID NO: 2 (protein, listed as Rattus norvegicus)
chain: B1 chain with Y14L, A72L, A117Y
modifications: PEPTIDE (1)...(131) wild-type rat intestinal fatty acid binding protein
B14: L1P17A8: FABP probe, substitutions L38M L72G Y117F vs SEQ ID NO: 2 (protein, listed as Rattus norvegicus)
chain: B1 chain with L38M, A72G, A117F
modifications: PEPTIDE (1)...(131) wild-type rat intestinal fatty acid binding protein
B15: L1P9G10: FABP probe, substitutions L38I L72G vs SEQ ID NO: 2 (protein, listed as Rattus norvegicus)
chain: B1 chain with L38I, A72G, A117Y
modifications: PEPTIDE (1)...(131) wild-type rat intestinal fatty acid binding protein
B16: L1P2F7: FABP probe, substitutions Y14I L72G Y117V vs SEQ ID NO: 2 (protein, listed as Rattus norvegicus)
chain: B1 chain with Y14I, A72G, A117V
modifications: PEPTIDE (1)...(131) wild-type rat intestinal fatty acid binding protein
B17: L1P12G10: FABP probe, substitution Y14I vs SEQ ID NO: 2 (protein, listed as Rattus norvegicus)
chain: B1 chain with Y14I, A72L, A117Y
modifications: PEPTIDE (1)...(131) wild-type rat intestinal fatty acid binding protein

Positions count from the first letter of the chain named. In names and notes the source's numbering stands.

A short description of the first assay: Probe fluorescence ratio response to arachidonic acid relative to ADIFAB2. The note with it: Table 3; Arachidonic acid. Type of assay: binding. The procedure, abridged: (§1)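 Fluorescently labeled rat intestinal FABP variants were read at two emission wavelengths, near the unbound maximum (about 420 to 480 nm) and the FFA-bound maximum (about 495 to 580 nm). R = Fλ1/Fλ2 after subtracting probe-free intensity; ΔR = R+agent − R0, normalized to ADIFAB2 (rI-FABP-L72A).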
For B1, the “DR/DRAD2 AA” value was 1.27.
Take B2: the “DR/DRAD2 AA” value came out at 1.21.
With B3, the “DR/DRAD2 AA” value is 1.12.
For the molecule B4, the “DR/DRAD2 AA” value stood at 0.62.
As to B5, the “DR/DRAD2 AA” value was found to be 1.31.
Same read-out and setting: as for B6, the figure is 1.35.

Still in this assay, the particulars now being: Table 4; Arachidonic acid.
As to B7, the “ΔR/DRAΔ2 AA” value amounted to 0.8.
Take B8: the “ΔR/DRAΔ2 AA” value came out at 0.7.
Consider B9, for which the “ΔR/DRAΔ2 AA” value was found to be 0.9.
For the molecule B10, the “ΔR/DRAΔ2 AA” value is recorded as 1.0.
Same read-out and setting: as for B11, the figure is 0.9; as for B12, −0.5; as for B13, 0.9.
Same read-out and setting: as for B14, the figure is 1.3.
As to B15, the “ΔR/DRAΔ2 AA” value came out at 1.0.
The same measure, in the same setting: as for B16, the figure is 0.9.
As for B17, the “ΔR/DRAΔ2 AA” value turned out to be 0.8.

The next assay in a line: Probe fluorescence ratio response to linolenic acid relative to ADIFAB2. Format: binding. The settings on record: Table 3. The procedure, abridged:
as §1
For the molecule B1, the “DR/DRAD2 LNA” value was 0.62.
For the molecule B2, the “DR/DRAD2 LNA” value turned out to be 1.86.
The same measure, in the same setting: as for B3, the figure is 1.16; as for B4, 0.48.
The same measure, in the same setting: as for B5, the figure is 1.35; as for B6, 1.07.

The assay is the same for the next values; noted with them: Table 4.
As for B7, the “ΔR/DRAΔ2 LNA” value is reported as 0.8.
Regarding B8, the “ΔR/DRAΔ2 LNA” value was found to be 0.9.
Same read-out and setting: as for B9, the figure is 0.5; as for B10, 1.2.
On the same count and under the same terms, as for B11, the figure is 1.0; as for B12, −0.7; as for B13, 0.9.
Consider B14, for which the “ΔR/DRAΔ2 LNA” value stood at 0.7.
For the molecule B15, the “ΔR/DRAΔ2 LNA” value came out at 0.7.
With B16, the “ΔR/DRAΔ2 LNA” value worked out at 0.5.
The same measure, in the same setting: as for B17, the figure is 1.0.

Another assay can be described thus: Probe fluorescence ratio response to linoleic acid relative to ADIFAB2. Type of assay: binding. The settings on record: Table 3. Put shortly: as §1
As to B1, the “DR/DRAD2 LA” value is 1.01.
On the same count and under the same terms, as for B2, the figure is 1.23.
As to B3, the “DR/DRAD2 LA” value worked out at 1.14.
The same measure, in the same setting: as for B4, the figure is 0.48; as for B5, 1.46.
Same read-out and setting: as for B6, the figure is 1.42.

Still in this assay, the particulars now being: Table 4.
Turning to B7, the “ΔR/DRAΔ2 LA” value is reported as 0.8.
On the same count and under the same terms, as for B8, the figure is 0.9.
The same measure, in the same setting: as for B9, the figure is 0.5; as for B10, 1.1.
For B11, the “ΔR/DRAΔ2 LA” value was found to be 0.9.
On to B12, for which the “ΔR/DRAΔ2 LA” value is listed as −0.7.
Same read-out and setting: as for B13, the figure is 0.8.
On the same count and under the same terms, as for B14, the figure is 0.8; as for B15, 0.8.
Same read-out and setting: as for B16, the figure is 0.6; as for B17, 0.9.

The nature of a further assay: Probe fluorescence ratio response to oleic acid relative to ADIFAB2. Type of assay: binding. The note with it: Table 3. The procedure, abridged: as §1
In the case of B1, the “DR/DRAD2 OA” value is reported as 0.93.
With B2, the “DR/DRAD2 OA” value is on record as 0.73.
Regarding B3, the “DR/DRAD2 OA” value was found to be 1.15.
On the same count and under the same terms, as for B4, the figure is 0.52; as for B5, 1.49.
As to B6, the “DR/DRAD2 OA” value was determined as 1.19.

The assay is the same for the next values; noted with them: Table 4.
As to B7, the “ΔR/DRAΔ2 OA” value is given as 0.4.
The same measure, in the same setting: as for B8, the figure is 0.4; as for B9, 0.3.
Same read-out and setting: as for B10, the figure is 0.7; as for B11, 0.5; as for B12, −1.0.
As for B13, the “ΔR/DRAΔ2 OA” value is on record as 0.5.
Still for that read-out and setting: as for B14, the figure is 0.7; as for B15, 0.9.
Still for that read-out and setting: as for B16, the figure is 0.3.
Same read-out and setting: as for B17, the figure is 0.5.

Another assay in a line: Probe fluorescence ratio response to palmitic acid relative to ADIFAB2. Format: binding. The settings on record: Table 3. The procedure, abridged: as §1
Consider B1, for which the “DR/DRAD2 PA” value was 0.32.
With B2, the “DR/DRAD2 PA” value is 1.13.
On the same count and under the same terms, as for B3, the figure is 1.02; as for B4, 0.26; as for B5, 1.32.
The same measure, in the same setting: as for B6, the figure is 0.55.

The same assay, now with this note: Table 4.
Take B7: the “ΔR/DRAΔ2 PA” value is 0.2.
B8: the “ΔR/DRAΔ2 PA” value is listed as 0.8.
Still for that read-out and setting: as for B9, the figure is 0.1; as for B10, 0.7.
For B11, the “ΔR/DRAΔ2 PA” value came out at 0.5.
With B12, the “ΔR/DRAΔ2 PA” value was −0.1.
Still for that read-out and setting: as for B13, the figure is 0.5; as for B14, 0.4.
Regarding B15, the “ΔR/DRAΔ2 PA” value is given as 0.4.
Regarding B16, the “ΔR/DRAΔ2 PA” value was determined as 0.1.
On the same count and under the same terms, as for B17, the figure is 0.8.
